The text below walks through data of patent US20040086528A1 (PROGENICS PHARMACEUTICALS, published 2004).

What all share (experiment): cell-based or functional assay
In experiment [1] the target is T1, CCR5 K171A/E172A, HA-tagged (human, UniProt P51681 1-352).
T1 sequence: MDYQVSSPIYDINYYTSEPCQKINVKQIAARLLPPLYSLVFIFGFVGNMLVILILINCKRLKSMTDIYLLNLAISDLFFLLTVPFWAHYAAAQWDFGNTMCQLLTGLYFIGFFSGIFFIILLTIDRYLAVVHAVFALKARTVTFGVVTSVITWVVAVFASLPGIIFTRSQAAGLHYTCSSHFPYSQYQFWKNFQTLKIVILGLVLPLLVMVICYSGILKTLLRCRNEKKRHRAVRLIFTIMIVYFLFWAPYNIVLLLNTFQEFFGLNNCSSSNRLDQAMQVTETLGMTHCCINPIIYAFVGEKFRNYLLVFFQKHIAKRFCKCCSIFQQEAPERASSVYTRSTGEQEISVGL

Another experiment concerns the target T2, CCR5 D11A, HA-tagged (human, UniProt P51681 1-352).
T2 sequence (looked up): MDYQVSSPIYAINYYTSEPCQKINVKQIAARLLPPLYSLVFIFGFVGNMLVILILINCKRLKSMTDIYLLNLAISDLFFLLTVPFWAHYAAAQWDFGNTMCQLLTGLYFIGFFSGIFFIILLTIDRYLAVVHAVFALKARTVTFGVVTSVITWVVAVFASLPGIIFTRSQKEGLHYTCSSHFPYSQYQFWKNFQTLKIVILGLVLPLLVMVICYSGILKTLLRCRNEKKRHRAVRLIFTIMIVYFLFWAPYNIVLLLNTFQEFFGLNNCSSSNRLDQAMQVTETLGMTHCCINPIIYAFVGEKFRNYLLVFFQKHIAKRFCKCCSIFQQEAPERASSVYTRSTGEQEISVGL

The target of another experiment is T3, CCR5 Q102A, HA-tagged (human, UniProt P51681 1-352).
T3 sequence: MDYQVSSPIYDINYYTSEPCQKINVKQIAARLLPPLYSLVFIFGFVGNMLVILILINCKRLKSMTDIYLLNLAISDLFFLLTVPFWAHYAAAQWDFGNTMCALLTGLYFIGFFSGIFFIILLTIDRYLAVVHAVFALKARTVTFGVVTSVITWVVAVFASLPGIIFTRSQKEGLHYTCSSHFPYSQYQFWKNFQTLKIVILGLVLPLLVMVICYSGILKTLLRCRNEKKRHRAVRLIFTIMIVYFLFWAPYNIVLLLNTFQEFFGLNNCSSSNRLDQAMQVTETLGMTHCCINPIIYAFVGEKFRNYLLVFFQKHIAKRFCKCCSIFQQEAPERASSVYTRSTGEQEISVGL

Experiment [2] concerns the target wild-type CCR5, HA-tagged at the C-terminus (human, UniProt P51681 1-352).
For another experiment, the target named is T4, CCR5 E262A, HA-tagged (human, UniProt P51681 1-352).
T4 sequence: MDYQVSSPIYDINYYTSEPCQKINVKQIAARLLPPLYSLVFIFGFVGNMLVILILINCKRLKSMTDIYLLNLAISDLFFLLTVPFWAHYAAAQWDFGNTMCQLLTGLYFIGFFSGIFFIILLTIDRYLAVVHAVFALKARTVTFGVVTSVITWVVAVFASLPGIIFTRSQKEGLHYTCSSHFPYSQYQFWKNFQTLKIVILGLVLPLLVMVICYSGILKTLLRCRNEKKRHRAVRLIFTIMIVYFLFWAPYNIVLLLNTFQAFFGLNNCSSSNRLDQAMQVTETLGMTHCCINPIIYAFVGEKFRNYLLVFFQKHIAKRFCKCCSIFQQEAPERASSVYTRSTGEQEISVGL

The target of another experiment is T5, CCR5 K26A, HA-tagged (human, UniProt P51681 1-352).
T5 sequence: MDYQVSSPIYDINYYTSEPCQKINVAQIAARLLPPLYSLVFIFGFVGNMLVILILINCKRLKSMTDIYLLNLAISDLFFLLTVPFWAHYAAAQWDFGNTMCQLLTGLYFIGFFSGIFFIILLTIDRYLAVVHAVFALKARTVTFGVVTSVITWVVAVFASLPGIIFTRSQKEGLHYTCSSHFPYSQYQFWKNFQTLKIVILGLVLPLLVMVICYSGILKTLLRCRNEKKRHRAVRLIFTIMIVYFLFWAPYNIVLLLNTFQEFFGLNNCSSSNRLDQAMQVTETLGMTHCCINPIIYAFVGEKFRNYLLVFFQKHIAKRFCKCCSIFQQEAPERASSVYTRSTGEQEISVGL

The target of the next experiment is T6, CCR5 R31A, HA-tagged (human, UniProt P51681 1-352).
T6 sequence: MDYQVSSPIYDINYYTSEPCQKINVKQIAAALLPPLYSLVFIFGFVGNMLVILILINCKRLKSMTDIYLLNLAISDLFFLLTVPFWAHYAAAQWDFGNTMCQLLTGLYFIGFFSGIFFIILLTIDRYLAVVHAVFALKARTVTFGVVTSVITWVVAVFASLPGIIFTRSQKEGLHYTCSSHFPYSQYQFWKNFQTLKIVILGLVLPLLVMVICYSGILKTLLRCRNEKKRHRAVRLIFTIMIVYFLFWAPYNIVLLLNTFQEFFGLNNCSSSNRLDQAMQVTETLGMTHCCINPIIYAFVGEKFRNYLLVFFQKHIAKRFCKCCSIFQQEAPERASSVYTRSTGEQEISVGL

For the next experiment, the target named is T7, CCR5 H181A, HA-tagged (human, UniProt P51681 1-352).
T7 sequence: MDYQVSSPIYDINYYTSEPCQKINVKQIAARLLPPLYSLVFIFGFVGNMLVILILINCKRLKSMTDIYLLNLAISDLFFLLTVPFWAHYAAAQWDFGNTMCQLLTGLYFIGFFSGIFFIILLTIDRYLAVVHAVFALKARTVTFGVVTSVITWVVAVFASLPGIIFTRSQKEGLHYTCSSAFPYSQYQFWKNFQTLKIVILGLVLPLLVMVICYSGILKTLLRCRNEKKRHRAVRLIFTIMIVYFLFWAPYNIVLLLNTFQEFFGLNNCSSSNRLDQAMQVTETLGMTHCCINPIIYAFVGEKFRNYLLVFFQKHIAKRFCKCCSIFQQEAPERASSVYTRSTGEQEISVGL

B1: macrophage inflammatory protein (MIP)-1β, recombinant human (ligand, UniProt P13236 24-92, looked up)
chain: APMGSDPPTACCFSYTARKLPRNFVVDYYETSSLCSQPAVVFQTKRSKQVCADPSESWVQEYVYDLELN
Turning to B1, the “relative % inhibition of NLluc/JR-FL entry into U87MG-CD4 cells by 2 µg/ml chemokine (wild-type = 100)” value (shortened to “relative % inhibition”) in experiment [1] was 97%; with CCR5 D11A, HA-tagged, 41%; with CCR5 Q102A, HA-tagged, 98%; in experiment [2], 100%; in the experiment with CCR5 E262A, HA-tagged it was 102%; in the experiment with CCR5 K26A, HA-tagged, 97%. Further, the “relative % inhibition” value with CCR5 R31A, HA-tagged was determined as 2%; with CCR5 H181A, HA-tagged, 53%.

B2: RANTES, recombinant human (ligand)
chain: SPYSSDTTPCCFAYIARPLPRAHIKEYFYTSGKCSNPAVVFVTRKNRQVCANPEKKWVREYINSLEMS
In the case of B2, the “relative % inhibition” value in experiment [1] was found to be 107%; with CCR5 D11A, HA-tagged it was 7%; with CCR5 Q102A, HA-tagged, 93%; in experiment [2], 100%; with CCR5 E262A, HA-tagged, 100%; with CCR5 K26A, HA-tagged, 100%. The “relative % inhibition” value with CCR5 R31A, HA-tagged was -16%; with CCR5 H181A, HA-tagged it was 39%.
